These results are taken from the supplement of paper PMC12042874.

± gives the uncertainty stated by the source.

The series in a line: amyloid nucleation score (Sup35N fusion, yeast selection) (log enrichment); library NNK1; higher = more nucleation; inactive = no reads after selection. A digest of the protocol: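 Nucleation score: DiMSum log enrichment of output over input reads, centred on the mode score of non-aggregating sequences. Only sequences with at least 100 input reads were kept. Reads came from Illumina sequencing of plasmid inserts before and after 7 days of growth at 30°C without adenine and uracil, in psi-negative yeast expressing Sup35N fused to peptides of 20 random codons after 24 hours of induction with 100 μM copper sulfate.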
VLGMWIWQYRYGDDYFLLFV: the amyloid nucleation score worked out at 2.7 ± 0.17.

Regarding VLGPRWECMNRTYWRRTMVV, the amyloid nucleation score is -0.011 ± 0.31.

As for VLIFAKFYELPGDRRFGTGW, the amyloid nucleation score amounted to 3.87 ± 0.11.

With VLINYLKMSDTCNFRLFLFK, the amyloid nucleation score came out at 5.916 ± 0.055.

Consider VLKHCWVGIFAQW, for which the amyloid nucleation score stood at 9.006 ± 0.052.

Take VLKHFGFCMLPNISAY: the amyloid nucleation score amounted to 0.386 ± 0.4.

The substance VLKRLRTYVYSIFW yielded an amyloid nucleation score of 0.543 ± 0.33.

In turn, VLLFVVLHLNLSVHILQNFQ had an amyloid nucleation score of -0.396 ± 0.54.

VLLSGDIRCDTSVSVTGLSH showed an amyloid nucleation score of -0.061 ± 0.3.

For VLLYKSLAV, the amyloid nucleation score worked out at 0.964 ± 0.15.

Turning to VLNEAYYDLYVYSHVSFSVL, the amyloid nucleation score was -0.248 ± 0.42.

With VLPMTGYSRLRPIYRFMFFD, the amyloid nucleation score was found to be 0.273 ± 0.44.

In turn, VLRHS yielded an amyloid nucleation score of -0.779 ± 1.

In the case of VLRLHAMRQQGICWSCVTGM, the amyloid nucleation score amounted to 0.185 ± 0.39.

VLSYL displayed an amyloid nucleation score of -0.248 ± 0.38.

As to VLVLNLSLPKSLSNPSMRFG, the amyloid nucleation score came out at 8.028 ± 0.046.

With VLYLMAAPIVMVYV, the amyloid nucleation score was 4.31 ± 0.061.

VMFPGKQHT returned an amyloid nucleation score of 0.012 ± 0.91.

In the case of VMFVPLQSVYSAP, the amyloid nucleation score is -0.766 ± 2.4.

In turn, VMGFHT gave an amyloid nucleation score of -0.402 ± 1.9.

In the case of VMYEVVHVNDDRCEAWLLSR, the amyloid nucleation score was -0.018 ± 1.5.

The substance VNCLLDQQYR displayed an amyloid nucleation score of 0.746 ± 0.46.

In the case of VNCVGKLKFDE, the amyloid nucleation score was determined as 0.05 ± 0.18.

Take VNEREPYNCCFMRFDTCTSP: the amyloid nucleation score stood at 1.31 ± 0.63.

Take VNFFLFRQCKGSFAWNHTVA: the amyloid nucleation score amounted to 6.336 ± 0.058.

Substance VNGARRQFRRLMPCLEAWVS returned an amyloid nucleation score of -0.372 ± 0.32.

In turn, VNHTKPVDILHC displayed an amyloid nucleation score of 0.521 ± 0.31.

For the substance VNILDLKTHLRR, the amyloid nucleation score entry is “inactive”.

VNMSVIWGRVFASEKVYRAK came in with an amyloid nucleation score of 0.871 ± 0.56.

On to VNNRRRVSVHDLRDATPGTF, for which the amyloid nucleation score stood at 0.099 ± 0.53.

In the case of VNSGVNCMTVFVVVSLLSCG, the amyloid nucleation score stood at 2.98 ± 0.11.

The substance VNSSKFKRVIYLV had an amyloid nucleation score of -0.453 ± 0.27.

Regarding VNVCYTMMEFVAGVYSGLLR, the amyloid nucleation score was found to be 0.288 ± 0.29.

VNVPHKTWIPDGDLRYYLTL: the amyloid nucleation score was -0.891 ± 0.85.

On to VNWRGNSRVGIRNRFFCHSH, for which the amyloid nucleation score is -0.28 ± 0.72.

For VNYSNWFSMADSFRSRSFSV, the amyloid nucleation score was -0.104 ± 1.1.

For the substance VPCDIYQCFYLSG, the amyloid nucleation score amounted to 5.25 ± 0.094.

VPTCMRVYIRGNSHNGMLAA: the amyloid nucleation score is 1.1 ± 0.4.

VQHRIISLALVYNTYNFSFS gave an amyloid nucleation score of 8.018 ± 0.074.

For VQLRLMDRNREHYGYEESTR, the amyloid nucleation score was determined as 0.22 ± 0.43.

In turn, VQNKYRFTLY came in with an amyloid nucleation score of 1.65 ± 0.33.

As for VQNTWVILRKL, the amyloid nucleation score was 4.43 ± 0.095.

The substance VRCNGDLQDKYRISFCNKSR returned an amyloid nucleation score of 0.01 ± 1.2.

On to VREYMTFQDMYLSGVSTVTL, for which the amyloid nucleation score was 1.08 ± 0.61.

Consider VRHSAIRGLHWSGRILRCGV, for which the amyloid nucleation score came out at 1.01 ± 1.1.

The substance VRLAL showed an amyloid nucleation score of -0.27 ± 0.26.

In turn, VRLMQIWGV showed an amyloid nucleation score of -0.5 ± 2.1.

As for VRLMSTAMLRRLELVLYST, the amyloid nucleation score was found to be 0.539 ± 0.32.

Turning to VRNKMGSRSYSTS, the amyloid nucleation score was -1.65 ± 2.7.

VRQSGLCIKWEVTRRAKRSV yielded an amyloid nucleation score of 0.699 ± 0.85.

For the substance VRSNRMTAGTGYWGNSTVKD, the amyloid nucleation score is -0.65 ± 0.56.

As to VRTFWCYCTWPASRYR, the amyloid nucleation score was -0.001 ± 0.51.

For the substance VRTSYFVAGSGSNAWGGENE, the amyloid nucleation score was -0.956 ± 0.99.

Turning to VRVNRLSFLNNALLFWLFAK, the amyloid nucleation score was determined as 2.3 ± 0.1.

Take VSASLDGPLSVRKGTSKAWD: the amyloid nucleation score was -0.043 ± 1.4.

The substance VSCQQTFASLFFGILAGKSI registered an amyloid nucleation score of -0.006 ± 0.54.

With VSDFGLGHGKQWRCRRQISL, the amyloid nucleation score was 0.685 ± 0.79.

In turn, VSEIN showed an amyloid nucleation score of 2.23 ± 0.57.

In turn, VSFLASMLRIGMCLPKQVMW came in with an amyloid nucleation score of 0.183 ± 0.8.

Turning to VSFNTFYRRSFPFQLRTTSV, the amyloid nucleation score turned out to be 0.329 ± 0.29.

In turn, VSFRMVLNYLQVGYSWGHWR displayed an amyloid nucleation score of 0.395 ± 0.44.

VSGRVGKNAGITGM came in with an amyloid nucleation score of 0.813 ± 1.1.

With VSIGIISII, the amyloid nucleation score was -0.663 ± 1.6.

Turning to VSIIE, the amyloid nucleation score was -0.127 ± 0.4.

Substance VSILSRI returned an amyloid nucleation score of -0.842 ± 0.61.

The substance VSINGGEYMSEFAGICGPVD yielded an amyloid nucleation score of 1.83 ± 0.46.

For the substance VSKLICVFTGSYRNLEGYRI, the amyloid nucleation score was found to be 0.041 ± 0.39.

In the case of VSLLVSICLLRLSLVSI, the amyloid nucleation score was found to be 0.259 ± 0.58.

Substance VSLRTISWNMLLNDCWHVKM came in with an amyloid nucleation score of 0.176 ± 0.72.

VSMFRRVASEALYRQPSMLA had an amyloid nucleation score of 0.972 ± 0.36.

Substance VSMHWSISRCIC had an amyloid nucleation score of 0.772 ± 0.43.

With VSNTHVNGGWSRRNGQWLGV, the amyloid nucleation score was -0.708 ± 0.45.

VSPLWSCFTSGVPTDCWSLG gave an amyloid nucleation score of 0.275 ± 1.2.

In turn, VSQSETCPGV yielded an amyloid nucleation score of 0.433 ± 0.53.

VSRLEVPRFLCTLQSTLLSS returned an amyloid nucleation score of -0.123 ± 0.86.

The substance VSRMGVGTIRTQVHGIRGGT returned an amyloid nucleation score of -0.522 ± 1.6.

In the case of VSRVTASYRFIFNYYEMDTS, the amyloid nucleation score result is “inactive”.

Substance VSTYRRDIMLHVITIENKLT had an amyloid nucleation score of 2.29 ± 0.6.

In the case of VSVNRVFFVSWAISKTIS, the amyloid nucleation score is -0.689 ± 0.55.

With VSWENPSINLRRADLPCPLF, the amyloid nucleation score was determined as 0.521 ± 0.57.

The substance VSWHHLVLLKGRLLEVSLSS yielded an amyloid nucleation score of -0.158 ± 0.28.

The substance VSYKTGIWGVSCDIDGVY had an amyloid nucleation score of -0.182 ± 0.24.

With VSYTVSFSFFLFLFNWHSYV, the amyloid nucleation score stood at 0.147 ± 0.65.

VTACYYSISFCVRGAMYGYV displayed an amyloid nucleation score of 1.38 ± 0.33.

On to VTFFHFSQGR, for which the amyloid nucleation score came to 4.79 ± 0.057.

VTFHLEARLAGLDLMGYSTS: the amyloid nucleation score came to 0.835 ± 0.53.

As for VTFWHVFLIFSYLSTCAWWW, the amyloid nucleation score was -0.382 ± 1.2.

Substance VTGWFYAGILYAFLYSQVLF displayed an amyloid nucleation score of 0.171 ± 1.2.

Substance VTHVFYAVLGGMRMGLNFPT had an amyloid nucleation score of -0.192 ± 0.4.

VTLSIYVNNSDGISR: the amyloid nucleation score worked out at 0.588 ± 0.4.

VTMSDLATHNYREMNSLFSF: the amyloid nucleation score amounted to 0.091 ± 0.28.

As to VTNPNYP, the amyloid nucleation score was -0.696 ± 0.65.

VTQFSVWLVLRICGLTLRWY gave an amyloid nucleation score of 0.31 ± 1.

Consider VTSLCYRNFFGVVEVLRYCQ, for which the amyloid nucleation score was 0.677 ± 0.51.

On to VTWVWFGVLVCFRRDGTLTY, for which the amyloid nucleation score is 0.676 ± 0.85.

On to VVDEVNTGNHDLTTSLLQLS, for which the amyloid nucleation score is -0.435 ± 0.68.

For VVHHEDYMRLGC, the amyloid nucleation score was -0.948 ± 1.4.

Regarding VVLCGDCFSLSLFWDCLWPF, the amyloid nucleation score came out at 4.38 ± 0.078.

VVMEMINFHPSTLCSILQ gave an amyloid nucleation score of 5.07 ± 0.11.

Substance VVNVQMNQPYMQCFPQDTR displayed an amyloid nucleation score of 3.93 ± 0.082.

For VVPFRLLDIQRNGCFDHGYP, the amyloid nucleation score was 0.142 ± 1.4.

Substance VVPPRTDSE gave an amyloid nucleation score of -0.364 ± 0.46.

In turn, VVRDRNYPFYLIIGRSVVLG came in with an amyloid nucleation score of 5.16 ± 0.061.

VVSYISPATLRTLKLEKGLS: the amyloid nucleation score stood at 0.029 ± 0.76.

In turn, VVSYWTHYPNKSLSWASWAA showed an amyloid nucleation score of -0.671 ± 1.2.

In the case of VVVFDKR, the amyloid nucleation score is -0.041 ± 1.

In turn, VVVVMRR returned an amyloid nucleation score of 1.94 ± 0.23.

Substance VWFPKTDTGVTS registered an amyloid nucleation score of 0.428 ± 0.34.

As to VWLSMEFLCVYTCMPCWSQL, the amyloid nucleation score was -0.423 ± 0.55.

In the case of VWRADMCSHS, the amyloid nucleation score was -0.17 ± 0.53.

VWRLSI showed an amyloid nucleation score of -0.557 ± 0.41.

VWRTQMFRV returned an amyloid nucleation score of 0.37 ± 1.1.

For VWVLPRDNVFSIKNYMSFS, the amyloid nucleation score came out at 6.965 ± 0.045.

The substance VYAILKDFFYFFGVNFFCCF showed an amyloid nucleation score of 4.18 ± 0.06.

VYASLTL gave an amyloid nucleation score of -1.26 ± 1.7.

VYLSYVFMYS gave an amyloid nucleation score of -0.445 ± 0.36.

Substance VYMRISFNEVMCFVCDTGSW yielded an amyloid nucleation score of 7.485 ± 0.046.

The substance VYMRNKEQVNIGHDTVNLSL registered an amyloid nucleation score of 0.58 ± 0.43.

In turn, VYRIWSSSGNYKEVYAHRAL yielded an amyloid nucleation score of 0.947 ± 0.93.

VYYYVLSLV: the amyloid nucleation score came to 0.207 ± 1.4.

As for WADNNTSH, the amyloid nucleation score is -0.094 ± 0.34.

In turn, WCLGMWLLHVLTTETTFKCT came in with an amyloid nucleation score of -0.158 ± 0.34.

WEKFIVAQIMVGHFGWVFQT gave an amyloid nucleation score of 5.36 ± 0.078.

Consider WEKNFKIGESRCSV, for which the amyloid nucleation score is -0.554 ± 1.1.

For WELARVDCNWFSHFWHAYMR, the amyloid nucleation score result was “inactive”.

The substance WESSGFQMICRSFSFNMFSS showed an amyloid nucleation score of -0.458 ± 0.52.

WEVRGHPSGLMEVRDLGVRF displayed an amyloid nucleation score of 0.249 ± 0.59.

The substance WFARNTLLEWEN gave an amyloid nucleation score of -1.57 ± 2.1.

In turn, WFAVWRIRCVRSDVANWMLS returned an amyloid nucleation score of 0.283 ± 0.37.

With WFFGRYHGTGQNMFRG, the amyloid nucleation score was 2.15 ± 0.18.

As for WFFHLTNLSFCCNPLVVPRV, the amyloid nucleation score is -0.004 ± 0.78.

For the substance WFQVASRVGLKKVYWVGHLE, the amyloid nucleation score entry is “inactive”.

As for WFSVMLRYEY, the amyloid nucleation score was determined as 1.71 ± 0.2.

WFTPNVWAGGVWHHVLGFGG showed an amyloid nucleation score of -0.93 ± 0.65.

As for WFYDAAFTMKVTVAIFVFFR, the amyloid nucleation score was 0.675 ± 0.71.

In turn, WGRRLSR displayed an amyloid nucleation score of 0.122 ± 0.5.

WGSASRLKVTLRRVRYTTTG yielded an amyloid nucleation score of 0.813 ± 0.71.

For the substance WGVFDTETIVWFVYIGTL, the amyloid nucleation score is -0.026 ± 0.32.

As for WGYRHSYSVGPRW, the amyloid nucleation score entry was “inactive”.

On to WHDKVKDFRIRAGHLSYSRG, for which the amyloid nucleation score came to 0.486 ± 0.63.

With WHILPQVWGIVHMIRSNLVC, the amyloid nucleation score is 0.99 ± 0.64.
